From US20240067725A1 come the findings set out here.

The target of this experiment is full-length human LAG-3 expressed on cells (human) (UniProt P18627). Kind of experiment: cell-based or functional assay.
Chain of full-length human LAG-3 expressed on cells (human) (P18627 23-525 limits assumed): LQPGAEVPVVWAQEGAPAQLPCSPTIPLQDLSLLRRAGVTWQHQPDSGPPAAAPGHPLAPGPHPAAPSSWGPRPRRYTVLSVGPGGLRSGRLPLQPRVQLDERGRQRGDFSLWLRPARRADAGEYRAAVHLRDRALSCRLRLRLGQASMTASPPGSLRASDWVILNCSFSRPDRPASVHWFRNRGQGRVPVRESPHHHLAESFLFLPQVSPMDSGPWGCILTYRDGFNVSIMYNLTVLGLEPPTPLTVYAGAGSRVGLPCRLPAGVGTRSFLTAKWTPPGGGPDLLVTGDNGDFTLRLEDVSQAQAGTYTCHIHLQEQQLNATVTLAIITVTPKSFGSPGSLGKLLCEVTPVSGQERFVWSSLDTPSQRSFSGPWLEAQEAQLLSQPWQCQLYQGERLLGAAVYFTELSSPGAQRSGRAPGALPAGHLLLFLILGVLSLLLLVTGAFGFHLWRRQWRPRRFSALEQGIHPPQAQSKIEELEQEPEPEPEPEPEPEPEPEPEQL

B1: BMK7 (antibody, from another filing, V domains shown)
VH: QVQLVESGGGVVQPGRSLRLSCVASGFTFSSYGMHWVRQAPGKGLEWVAIIWYDGSNKYYADSVKGRFTISRDNSKNTQYLQMNSLRAEDTAVYYCASVATSGDFDYYGMDVWGQGTTVTVSS
VL: EIVLTQSPATLSLSPGERTTLSCRASQRISTYLAWYQQKPGQAPRLLIYDASKRATGIPARFSGSGSGTGFTLTISSLEPEDFAVYYCQQRSNWPLTFGGGTKVEIK
B1 gave an EC50 (nM), IL-2 luciferase reporter gene assay of 2.65 nM.
